Measurements from US20090264354A1 (UNIVERSITY OF UTAH RESEARCH FOUNDATION, published 2009).

Biological target: the molecule itself
Test: anti-Myc immunoprecipitation from co-transfected NIH3T3 lysates, non-reducing Western blot; 58-kD disulfide-bonded homodimer
Description: This example describes the analysis of the protein structure of Penumbra protein. NIH3T3 fibroblasts were co-transfected with pcDNA3.1/Pen-Myc and pEGFP NI/Pen. The latter expressed murine Penumbra (SEQ ID NO:3) as a fusion protein with enhanced green fluorescent protein (EGFP) in its C-terminus. The Pen-Myc fusion protein was first immunoprecipitated from cell lysates using the anti-Myc MAb, Western blotted and sequentially probed with anti-Myc and anti-EGFP antibodies. It appeared that both Pen-Myc/Pen-Myc and Pen-Myc/Pen-EGFP dimers were apparent in the immunoprecipitates under non-reducing conditions and they appeared to dissociate into monomers after reduction indicating they appear to form disulfide-bonded homodimers. It appeared that under reducing conditions, all Pen-Myc fusion proteins existed as 29-kD monomers. In contrast, under non-reducing conditions, it appeared that about half of Pen-Myc protein existed as 58-kD homodimers, while the remaining Pen-Myc protein appeared to exist either as 29-kDa monomers or 89-kDa dimers with Pen-EGFP. […] The same blot was then stripped and reprobed with anti-EGFP antibodies to reveal an apparent ˜60-kD Pen-EGFP monomer and the 89-kD Pen-Myc/Pen-EGFP dimer.

B1: Penumbra-Myc fusion protein (murine Penumbra with C-terminal 11-aa Myc and 6-aa His tags, expressed from pcDNA3.1/Pen-Myc) (other)
chain: MARRPGVPAAYGDEFSFVSPLVKYLLFFFNMLFWVISMVMVAVGVYARLMKHAEAALACLAVDPAILLIVVGVLMFLLTFCGCIGSLRENICLLQTFSLCLTIVFLLQLAAGILGFVFSDKARGKVSEIINNAIVHYRDDLDLQNLIDFGQKKFSCCGGISYRDWSQNMYFNCSEDNPSRERCSVPYSCCLPTPRQAVINTMCGQGMQANDYLEASKVIYTNGCIDKLVNWIHSNLFLLGGVALGLAIPQLVGILLSQVLVNQIKDQIKLQLYNQQHRADPWY
notes: Seen as a 29-kD monomer on reducing gels; also called Pen-Myc fusion protein; Pen-Myc protein; not shown: 11-aa Myc tag from the pcDNA3.1 vector; 6-aa His tag from the pcDNA3.1 vector
- binding result: binds
